The supplement of paper PMC10567573

B1: RSAD1 (parent)
chain: YCNFNKYIPRRLEEAAMQKCLVTE
B2: GLTSCR2 (parent)
chain: LARRRRRRQARREAEADKPRRLGR

Variants of: B1
Assay: protein stability index of a GFP-peptide fusion (GPS, HEK-293T) (PSI 1-6); higher = more stable
Details: c terminus: a fixed tail appended
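Also: lentivirally expressed fusions sorted by FACS into six bins by GFP to DsRed ratio, PSI derived from sequencing read proportions per bin multiplied by bin number.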

Protein stability index, by site and new letter:
C2: M 2.31 | S 1.84 | W 1.82 | K 2.31 | G 2.48 | R 2.42 | H 3.01 | Y 1.89 | E 2.98 | I 1.76 | P 1.44 | F 2.35 | A 2.33 | Q 1.87 | D 2.88 | T 2.2 | N 2.84
A16: S 2.56 | T 2.39 | H 3.97 | R 2.39 | Q 2.23 | C 3.34 | K 3.53 | W 1.79 | I 3.03 | D 2.54 | M 1.57 | L 1.41 | V 2.98 | N 3.66 | F 1.74 | Y 2.16
M17: D 3.71 | R 1.71 | H 3.23 | V 2 | Q 2.57 | Y 2.85 | A 1.98 | F 1.67 | P 1.92 | G 1.99 | W 2.1 | E 2.44 | I 2.82 | K 2.85 | T 3.45 | C 1.72 | L 1.96 | N 2.11
E14: G 3 | M 3.14 | P 2.92 | Y 1.33 | I 2.32 | A 3.07 | K 1.58 | H 1.65 | C 2.27 | R 2.33 | T 2.09 | S 2.5 | N 3.14 | W 1.96 | Q 2.85 | V 3.05 | L 2.34 | D 2.71 | F 2.31
R10: G 1.24 | C 3.8 | L 2.63 | K 1.64 | Y 2.26 | M 2.53 | A 1.91 | S 1.48 | T 1.59 | H 1.94 | E 1.26 | P 1.74 | W 3.64 | N 2.33 | Q 1.96 | F 2.22 | D 1.92 | I 2.39
I8: M 1.85 | R 1.67 | Q 1.61 | D 2.3 | T 1.96 | N 1.68 | S 2.37 | K 1.71 | G 1.22 | V 1.09 | A 1.69 | F 2.48 | W 2.26 | Y 1.5 | E 2.03 | L 2.05 | H 2.58 | P 1.83
N3: K 1.84 | E 1.99 | F 2.4 | C 1.95 | G 2.94 | W 1.96 | P 2.03 | A 2.13 | T 2.6 | V 1.85 | H 2.74 | Q 2.04 | M 2.24 | R 1.66 | I 1.61 | L 1.66 | Y 1.63 | S 1.84
F4: N 2.49 | P 2.82 | T 2.61 | H 1.21 | D 2.58 | E 2.07 | S 2.8 | L 2.08 | W 2.56 | K 2.26 | V 3.15 | M 2.35 | I 1.67 | R 1.95 | G 2.66 | Q 2.76 | C 1.94 | Y 2.23
L12: T 2 | W 4.96 | N 3.28 | Y 3.24 | V 2.74 | S 2.45 | F 2.15 | Q 4 | C 1.96 | M 2.83 | K 2.42 | I 2.98 | R 2.41 | G 2.96 | P 2.95 | E 2.46 | D 2.19 | H 2.52
Y1: C 1.97 | R 1.96 | G 1.89 | D 2.47 | V 1.99 | W 2.65 | M 2.32 | E 2.49 | A 2.31 | I 2.76 | P 2.27 | L 2.72 | K 2.63 | T 2.38 | H 2.94 | N 2.58 | S 2.46 | F 1.68 | Q 3.07
P9: A 2.11 | I 2.85 | N 1.82 | E 3.05 | V 2.71 | T 1.79 | D 2.38 | R 1.37 | H 2.14 | L 2.28 | K 1.73 | Q 1.54 | M 1.4 | S 2.52 | Y 2.48 | W 2.6 | G 2.12 | C 3.11
K19: D 1.68 | C 2.08 | G 2.12 | E 2.71
Q18: K 2.15 | A 1.75 | G 1.76 | T 1.89 | V 3.15 | L 1.71 | H 1.88 | C 2.41 | F 2.34 | D 1.84 | N 3.44 | R 2.03 | Y 2.88 | P 1.96 | M 3.17 | I 2.76 | S 2.02
N5: K 2.28 | M 2.72 | W 2.15 | D 1.49 | H 2.31 | V 1.19 | G 2.91 | A 1.68 | I 2.17 | F 1.25 | Y 2.75 | P 2.07 | T 2.59 | R 2.48 | Q 2.18 | L 3.04 | S 3.3
R11: T 1.95 | V 2.41 | L 2.57 | F 3.01 | K 2.14 | E 2.17 | H 2.96 | W 2.73 | D 1.84 | N 1.61 | I 3.24 | G 2.64 | S 1.44 | A 3.42 | C 2.17 | Y 1.48 | Q 1.67
Y7: I 2.02 | T 2.22 | P 2.42 | N 2.58 | A 2.11 | R 2.31 | D 2.49 | Q 1.8 | K 2.42 | C 2.52 | H 2.68 | L 2 | G 2.18 | V 3.01 | F 3.98 | S 2.51 | M 1.79 | E 3.1
K6: G 3.22 | W 2.56 | F 3.19 | S 2.19 | V 3.4 | E 3.37 | M 3.03 | T 2.79 | H 3.4 | Q 1.5 | C 1.43 | P 2.21 | R 1.7 | I 2.52 | Y 3.05 | D 2.9 | N 2.56 | A 2.11 | L 2.58
E13: F 2.34 | T 2.55 | A 2.63 | Y 1.88 | K 1.82 | I 1.66 | Q 1.93 | R 2.19 | P 3.17 | D 3.69 | G 2.11 | S 1.46 | W 2.49 | C 1.99 | N 3.29 | H 3.29 | L 2.16 | M 2.56
A15: Y 2.61 | D 2.55 | I 1.56 | L 2.23 | M 2.14 | P 2.85 | W 1.04 | Q 2.24 | K 1.69 | N 2.09 | F 2.02 | V 3.4 | C 1.83 | H 3.35 | E 1.84 | T 3.34

Variants of: B2
Assay: as above
Details: c terminus: a fixed tail appended

Protein stability index, by site and new letter:
R8: T 4.21
R3: D 4.56
R24: H 4.8 | G 4.79
A10: V 4.57
L1: N 4.89 | M 4.75
R4: W 3.11 | N 4.63
A16: R 3.96
E13: G 5.01
